We go through one molecule from publication doi:10.1101/2024.04.22.590536 (bioRxiv, 2024).

Where no end group is shown, it is not given here.

This assay concerns the target T1, GST-tagged Ifh1 activation domain (AA 703-811) (S. cerevisiae, UniProt P39520 703-811).
T1 sequence (looked up): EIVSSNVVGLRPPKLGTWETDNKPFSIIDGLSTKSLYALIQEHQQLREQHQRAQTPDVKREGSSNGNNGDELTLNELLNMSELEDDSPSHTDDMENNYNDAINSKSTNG
Kind of assay: fluorescence polarisation.

NNNSRNNFNNRRGGRGARKGNNTANATNSANTVQKNRNIDVSNLPSLA (peptide, UniProt P39015 226-273, looked up, also: TAMRA label, position not given here) [TAMRA-labelled Stm1-IDR peptide (AA 226-273)]: the Kd is ~1400 nM.
